Where no end group is shown, it is not given here.
Columns and labels:
[1] = molecular target: T1, Anti-PSMA Fab (SEQ ID NOs: 19, 20); test: phage binding ELISA; biotinylated PSMA Fab on neutravidin plate, clonal phage detected with anti-M13-HRP
T1 construct: Biotinylated and captured on neutravidin coated plates in the phage ELISA; also called 006 PSMA Fab
Method: (§1) Clonal phage were harvested as crude supernatants and screened via standard ELISAs. […] Prior to the addition of clonal phage. wells were incubated with blocking buffer and PSMA antigen or blocking buffer alone. Without washing or aspirating, clonal phage supernatants were then added to the wells and incubated for a short time. Wells were then washed followed by detection of bound phage using a horse radish conjugated anti-M13 antibody.

[2] = molecular target: T1, Anti-PSMA Fab (SEQ ID NOs: 19, 20); test: phage binding ELISA; Fab-coated wells pre-incubated with PSMA antigen as competitor, anti-M13-HRP detection;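 note: clonal phage supernatants screened, with reference wells given blocking buffer only (no PSMA antigen) before phage were added for a brief incubation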
Method: as §1

[3] = molecular target: T2, Anti-PSMA Fab (SEQ ID NOs: 19, 20); test: phage ELISA; PSMA Fab on plate pre-incubated with PSMA antigen as competitor, anti-M13 HRP detection;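 note: crude clonal phage supernatants added to Fab-coated wells still holding PSMA antigen in blocking buffer, with bound phage as read-out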
T2 construct: Biotinylated PSMA Fab captured on neutravidin coated plates in the phage ELISA; also called 006 PSMA Fab
Method: as §1

[4] = molecular target: T2, Anti-PSMA Fab (SEQ ID NOs: 19, 20); test: phage ELISA; biotinylated PSMA Fab on neutravidin plate, clonal phage supernatant, anti-M13 HRP detection;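 note: wells preincubated with PSMA antigen in blocking buffer or with blocking buffer only before clonal phage were added for a short incubation, then bound phage detected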
Method: as §1

[5] = molecular target: T3, Anti-PSMA Fab (SEQ ID NOs: 19, 20); test: phage ELISA; biotinylated PSMA Fab captured on neutravidin plate, clonal phage supernatant, anti-M13 HRP detection
T3 construct: Biotinylated and captured on neutravidin coated plates in the phage ELISA; also called 006 PSMA Fab
Method: as §1

[6] = molecular target: T3, Anti-PSMA Fab (SEQ ID NOs: 19, 20); test: phage ELISA; captured PSMA Fab pre-incubated with PSMA antigen as competitor, anti-M13 HRP detection
Method: as §1

[7] = molecular target: T4, Anti-PSMA Fab (SEQ ID NOs: 19, 20); test: phage binding ELISA; biotinylated PSMA Fab on neutravidin plate, clonal phage supernatant, anti-M13 HRP detection;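 note: wells were preincubated with blocking buffer either containing PSMA antigen or without it before crude phage supernatant was added, briefly incubated, then washed prior to detection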
T4 construct: also called 006 PSMA Fab
Method: as §1

[8] = molecular target: T4, Anti-PSMA Fab (SEQ ID NOs: 19, 20); test: phage binding ELISA; PSMA Fab on plate pre-incubated with PSMA antigen as competitor, anti-M13 HRP detection;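 note: crude clonal phage supernatants added without washing to wells preincubated with PSMA in blocking buffer, compared with wells receiving blocking buffer only, then bound phage detected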
Method: as §1

Binder | Anti-PSMA Fab (SEQ ID NOs: 19, 20) signal [1] | Anti-PSMA Fab signal in the presence of PSMA [2] | Phage binding ELISA, Anti-PSMA Fab (SEQ ID NOs: 19, 20) signal [5] | Phage binding ELISA, Anti-PSMA Fab signal in the presence of PSMA [6] | also measured
WYKWCTPAWMCEFT (tested as crude clonal phage supernatant) [Phage-2189] | 1.63 | 0.145 | – | – | –
SLHLCIPQWMCGIS (cysteine pairing not given here; also: displayed on bacteriophage as fusion to pIII, tested as crude clonal phage supernatant) [Phage-2177] | 1.64 | 0.0806 | – | – | –
EMKWCIPDWMCAAG (Clonal phage of the Peptide-180 library, tested as crude supernatant; not shown: fused to the pIII filament of the bacteriophage) [Phage-2161] | – | – | – | – | Phage binding ELISA, Anti-PSMA Fab signal in the presence of PSMA [3]: 0.0716; Phage binding ELISA, Anti-PSMA Fab (SEQ ID NOs: 19, 20) signal [4]: 1.66
MAMMCIPPWMCDTM (Clonal phage of the peptide-180 library, tested as crude supernatant; not shown: pIII of the bacteriophage, to which the peptide is fused) [Phage-2172] | – | – | 1.65 | 0.0889 | –
ESMLCRPVWMCVGF (Clonal phage of the peptide-180 library, tested as crude supernatant; not shown: pIII of the bacteriophage, to which the peptide is fused) [Phage-2169] | – | – | 1.65 | 0.0711 | –
PAKWCIPMWMCQVD [Phage-2254] | – | – | – | – | Anti-PSMA Fab (SEQ ID NOs: 19, 20) signal [7]: 1.55; Anti-PSMA Fab signal in the presence of PSMA [8]: 0.0779
ENKWCIPTWMCAHE (cysteine pairing not given here; also: displayed on phage, fused to pIII, Clonal phage of the peptide-180 library, tested as crude supernatant; not shown: pIII of the bacteriophage, to which the peptide is fused) [Phage-2173] | – | – | 1.64 | 0.0646 | –
VHMRCIPEWMCQVF (tested as crude clonal phage supernatant) [Phage-2183] | 1.63 | 0.071 | – | – | –
LIKWCTPPWMCEQL (tested as crude clonal phage supernatant) [Phage-2180] | 1.64 | 0.0655 | – | – | –
GEKWCIPEWMCVHL (Clonal phage of the peptide-180 library, tested as crude supernatant; not shown: pIII of the bacteriophage, to which the peptide is fused) [Phage-2168] | – | – | 1.65 | 0.065 | –
LDKLCIPSWMCWSH (tested as crude clonal phage supernatant) [Phage-2181] | 1.64 | 0.0713 | – | – | –
EPKLCRPAWMCVGM (tested as crude clonal phage supernatant) [Phage-2179] | 1.64 | 0.0704 | – | – | –
LSHWCSPQWMCSGF (tested as crude clonal phage supernatant) [Phage-2188] | 1.63 | 0.0932 | – | – | –
ITKWCTPAWMCAHL (cysteine pairing not given here; also: displayed on bacteriophage as fusion to pIII, tested as crude clonal phage supernatant) [Phage-2178] | 1.64 | 0.0904 | – | – | –
DENWCKPLWMCKGF (Clonal phage of the peptide-180 library, tested as crude supernatant; not shown: pIII of the bacteriophage, to which the peptide is fused) [Phage-2170] | – | – | 1.65 | 0.105 | –
HEKLCIPWWMCEDH (tested as crude clonal phage supernatant) [Phage-2182] | 1.64 | 0.0868 | – | – | –
NERWCIPSWMCQEA [Phage-2253] | – | – | – | – | Anti-PSMA Fab (SEQ ID NOs: 19, 20) signal [7]: 1.55; Anti-PSMA Fab signal in the presence of PSMA [8]: 0.0574

Binder | Anti-PSMA Fab (SEQ ID NOs: 19, 20) signal [1] | Anti-PSMA Fab signal in the presence of PSMA [2] | Phage binding ELISA, Anti-PSMA Fab (SEQ ID NOs: 19, 20) signal [5] | Phage binding ELISA, Anti-PSMA Fab signal in the presence of PSMA [6] | also measured
VIPWCIPEWMCTAS (Clonal phage of the peptide-180 library, tested as crude supernatant; not shown: pIII of the bacteriophage, to which the peptide is fused) [Phage-2175] | – | – | 1.64 | 0.0692 | –
EVKLCRPPWMCEIF (Clonal phage of the peptide-180 library, tested as crude supernatant; not shown: pIII of the bacteriophage, to which the peptide is fused) [Phage-2162] | – | – | 1.66 | 0.0633 | –
WSKSCTPAWMCEGF (tested as crude clonal phage supernatant) [Phage-2185] | 1.63 | 0.0843 | – | – | –
GDRLCVPEWMCEML (Clonal phage of the peptide-180 library, tested as crude supernatant; not shown: pIII of the bacteriophage, to which the peptide is fused) [Phage-2171] | – | – | 1.65 | 0.0685 | –
YVNWCTPEWMCVGF (Clonal phage of the peptide-180 library, tested as crude supernatant; not shown: pIII of the bacteriophage, to which the peptide is fused) [Phage-2174] | – | – | 1.64 | 0.0598 | –
EIKWCTPAWMCEGF (tested as crude clonal phage supernatant) [Phage-2187] | 1.63 | 0.0762 | – | – | –
VQKWCVPEWMCGSW (Clonal phage of the peptide-180 library, tested as crude supernatant; not shown: pIII of the bacteriophage, to which the peptide is fused) [Phage-2167] | – | – | 1.65 | 0.0837 | –
VEHWCTPRWMCRGF (Clonal phage of the peptide-180 library, tested as crude supernatant; not shown: pIII of the bacteriophage, to which the peptide is fused) [Phage-2176] | – | – | 1.64 | 0.0605 | –
EHHWCIPKWMCNEV (tested as crude clonal phage supernatant) [Phage-2190] | 1.63 | 0.0711 | – | – | –
EFKWCIPAWMCTAA (tested as crude clonal phage supernatant) [Phage-2186] | 1.63 | 0.0998 | – | – | –
GSHWCIPPWMCQMS (Clonal phage of the peptide-180 library, tested as crude supernatant; not shown: pIII of the bacteriophage, to which the peptide is fused) [Phage-2163] | – | – | 1.66 | 0.0821 | –
VELLCKPPWMCSGL [Phage-2255] | – | – | – | – | Anti-PSMA Fab (SEQ ID NOs: 19, 20) signal [7]: 1.54; Anti-PSMA Fab signal in the presence of PSMA [8]: 0.0931
VVPWCIPVWMCNSQ (Clonal phage of the peptide-180 library, tested as crude supernatant; not shown: pIII of the bacteriophage, to which the peptide is fused) [Phage-2165] | – | – | 1.65 | 0.0957 | –
YEKWCTPAWMCEYQ (Clonal phage of the peptide-180 library, tested as crude supernatant; not shown: pIII of the bacteriophage, to which the peptide is fused) [Phage-2166] | – | – | 1.65 | 0.0648 | –
TEKWCIPEWMCAHQ (cysteine pairing not given here; also: displayed on bacteriophage as fusion to pIII, tested as crude clonal phage supernatant) [Phage-2184] | 1.63 | 0.0839 | – | – | –
DIRWCIPDWMCTET (Clonal phage of the peptide-180 library, tested as crude supernatant; not shown: pIII of the bacteriophage, to which the peptide is fused) [Phage-2164] | – | – | 1.65 | 0.0725 | –
VDNWCVPRWMCDGF (tested as crude clonal phage supernatant) [Phage-2191] | 1.63 | 0.0922 | – | – | –
